Data as given in patent publication US20210187120A1 (WISCONSIN ALUMNI RESEARCH FOUNDATION, published 2021).
One block for each binder: values may come before it. No end group written: not given here.

What was measured:
[1] = molecular target: T1, PD-L1 proteins (R&D systems) (UniProt Q9NZQ7 19-239, limits assumed); assay: fluorescence polarization, fβH2_mt titrated with PD-L1 in PBS; the concentration varied is that of PD-L1
T1 construct: Commercial recombinant PD-L1; It was immobilized on a CM5 chip for SPR and used in solution for the FP assay; also called immobilized PD-L1 proteins
T1 sequence (Q9NZQ7 19-239 limits assumed): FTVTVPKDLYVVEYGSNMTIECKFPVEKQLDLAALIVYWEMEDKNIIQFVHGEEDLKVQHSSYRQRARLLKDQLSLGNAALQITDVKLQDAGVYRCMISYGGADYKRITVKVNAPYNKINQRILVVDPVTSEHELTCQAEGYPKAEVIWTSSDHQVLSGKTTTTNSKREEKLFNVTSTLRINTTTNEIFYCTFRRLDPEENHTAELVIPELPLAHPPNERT
Experimental: Fluorescence polarization (FP) assay. FP assay in PBS was used the PD-L1 binding and competition assays (λex=480 nm; λem=535 nm). Fluorescence anisotropy measurements were performed at room temperature, in a 384-well plate, and using an Infinite® M1000 Pro microplate reader (Tecan). A fβH2_mt/PD-L1 complex was used for the FP competition assay after 30 min incubation time and titrated with the competitors.

[2] = molecular target: T2, PD-L1 on 786-O cells (PD-L1 overexpressing human renal cell carcinoma line) and MCF-7 cells (low PD-L1) (human, UniProt Q9NZQ7 19-290); assay: cell-based or functional assay
T2 sequence (Q9NZQ7 19-290): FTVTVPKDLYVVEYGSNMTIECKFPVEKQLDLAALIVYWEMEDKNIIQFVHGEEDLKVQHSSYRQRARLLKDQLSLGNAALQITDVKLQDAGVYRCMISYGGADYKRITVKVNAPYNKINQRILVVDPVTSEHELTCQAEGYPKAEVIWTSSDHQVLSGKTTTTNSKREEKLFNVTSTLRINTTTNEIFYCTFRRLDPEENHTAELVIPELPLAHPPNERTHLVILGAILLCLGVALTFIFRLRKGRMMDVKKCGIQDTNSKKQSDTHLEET

[3] = molecular target: T1, PD-L1 proteins (R&D systems); assay: SPR, PD-L1 immobilized on CM5 chip
Experimental: (§1) Surface plasma resonance (SPR). SPR analysis was done using a BIAcore™ X (Pharmacia Biosensor AB, Uppsala, Sweden). In short, PD-L1 proteins (R&D systems) were immobilized onto carboxylated dextran-coated gold film surface of sensor chip (CM5 sensor chip, GE Healthcare) through EDC/NHS chemistry. 30 μL of sample solution was injected at a flow rate of […]. Sample solution was allowed to flow into both channels (channel 1 for reference, channel 2 with PD-L1), and the final SPR sensorgrams were obtained by subtracting the […].

[4] = molecular target: T1, PD-L1 proteins (R&D systems); assay: SPR (BIAcore X), PD-L1 immobilized on CM5 chip, four concentrations (45-270 nM by the legend)
Experimental: as §1

[5] = molecular target: T2, PD-L1 on 786-O cells (PD-L1 …); assay: fluorescence microscopy (rhodamine), cells treated for 1 h
[6] = molecular target: T1, PD-L1 proteins (R&D systems); assay: SPR (BIAcore X), PD-L1 immobilized on CM5 chip, four concentrations (17-42 µM by the legend)
Experimental: as §1

Binder: HVVWHRESPSGQTDTKAA-NH2 (other, not fully specified, also called G7-βH2_mt conjugates; DPC) [G7-βH2_mt (βH2_mt peptides conjugated to 90% acetylated G7 PAMAM dendrimer)]
IL-2 secretion from Jurkat T cells co-cultured with 786-O cells, compared with the non-treated cancer cells [2]: 1.52 fold
fold decrease of the dissociation rate constant (kd) compared to the free peptide [3]: ~180 times
Kd [4]: 2.75 nM
koff [4]: 0.000693 s⁻¹
kon [4]: 252000 M⁻¹ s⁻¹

B2: pL1TZ (Trp-Zip βH2 mutant peptide) (peptide)
peptide: HKVWHWESPSGQWDTWAA-NH2
notes: Free tryptophan-zipper peptide; also called pLiTZ
binding result [5]: binds

The next lines start with the values.

EC50 (read off the curve) [1]: ~300 nM
B1: fluorescein-conjugated βH2_mt (fβH2_mt) peptide (peptide)
peptide: HVVWHRESPSGQTDTKAA-NH2
modifications: also: fluorescein-conjugated, position not given here
notes: Tracer of the fluorescence polarization assay

Kd [6]: 119000 nM
koff [6]: 0.127 s⁻¹
B3: free βH2_mt peptide (peptide)
peptide: HVVWHRESPSGQTDTKAA-NH2
notes: also called H2_mt peptides; free peptides
